In the DeepSol protein solubility set:

test: soluble on expression in E. coli; label from the status in PepcDB or PDB records

Sequence	soluble on expression in E. coli
GPGSMPLMSADGSGELPPVMLHRYPVTLGLPTADPYALAIECMLRIVGAHYKKRDGGLPVTLEVPVDGRNKPAMKRHEGLTSCLQLIESATHQDAEVITSALEPEALCVRLTAEVVLIPAFVYITHSDAGILRNAIQKAVEPKVASMWQRFRGSYSRHVVQQTSFCRSYKNMGEAIENVERCLRAIEAICSINTAGNGMFILGTERPCSADALIYAAASSFFHADFASRQASGDIIAMQQRLREGCPTLLTYVERLRGLYFEDYSAFYHLRAPTCGMEGEATQKAAEETFVRGRWKVLAFTGVFSITYFLVANIDVFSAVLLHYLEDDGEEEFLEDEE	not soluble
MEISTLLALSPLDGRYQQKVAALRPFFSEYALIRNRIHVEIEWFKALGNTPALTGASSLSTGAVVQLDQLVENFSVTDAEAVKSIETRTNHDVKAVEYWLKEKLTGDQETAAISE	not soluble
MGSDKIHHHHHHMMVLEQPLKSFFTSLSQSKSMNKLAKKWGLKLGASQVVAGVTISEAIEKVKELNEKGLSATLDHLGEFVEERTEAIEATDHCIQTLEQIASSGVNCNLSLKLTQLGLDIDQSFCLENMERIIKKAAELGIFVRIDMEDYGHCQQTLDILAELRKTYDNVGTVIQAYLFRALDDVRALEGIPLRLVKGAYKESPEVAYQEKEKIDENYFNMIKLHLDSGTYTAIASHDHQIIDRVKAYVKEKGISHSQFEFQMLYGFRTNLQEELVKEGYNVRIYVPFGIDWFGYFMRRLAERPQNVAFALRGFFSK	not soluble
GSKAPPTFKVSLMDQSVREGQDVIMSIRVQGEPKPVVSWLRNRQPVRPDQRRFAEEAEGGLCRLRILAAERGDAGFYTCKAVNEYGARQCEARLEVRGE	soluble
MSSEVEPPQKKKQPWLPDYIVENCLAHISRSYYPKLSLVSSPFALSSYPKSSTKRDIASTTEEYFFHVCLQLPKSPLPTWYTLWIKPDQIEKKKKINTFTGNTRLVQIPSSYHYPFDQVFIFNLYGAMRSSKAMVRPPSYGLVSMF	not soluble
MIHTLAKCEWIKKSLPLCLIGDSGTGKSHLLIALGTEAAMAGYRVKYVLATKLVNELVEAADEKQLTKTIARYGRVDLLCIDELGYMELDRRGAELLFQVLTEREEKNSVAIASNESFSGWTKTFTDPRLCAAIVDRLTFGGNIIETGTDSYRLATTRARAEQQAVVLEHHHHHH	not soluble
MGSDKIHHHHHHMSGIRLVRAKITYLHDSCTFNFINENMSVKLLWSVPYRGDRMITYESVYPIQSKDVAKLIITKVRNNPKTLSVFDRSINGKTLFIGYLEYSDNSPFYLSNRVGTIFYDEYTGTGGDVISMITTADNFDLIREDLSVYGKIVHRQVQEIEAESINGPPRLTEMQEKVLRNAFEMGFFNYPKDVHLKDIAQKIGVSAVSVDQYLREAQRKLIRAYLNG	not soluble
TGALMASSPQDIKFQDLVVFILEKKMGTTRRALLMELARRKGFRVENELSDSVTHIVAENNSGSDVLEWLQAQKVQVSSQPELLDVSWLIECIGAGKPVEMTGKHQL	soluble
MGSDKIHHHHHHMRFTEGLWRLREGVQLFRPEQVYEYSCDGKKLILRSPFRRVEHRGQTLQGPVFEIEISSPFENVIRIRFRHFKGVLEKPPYYEIYQDESFTPDIKETEGSFIFTSGKAKAIIRKNPFGVEFFYEDRFLTKSDLGYAVAPEGRFCLERLHLSVGEMIYGLGERFSAFVKNAQRVVMWNEDAGTISDMTYKNIPFYVSIRKYGVFVNDPGKVDFEIATEHVEKVQFSVKGETLDYFIIAGKDLKEVLERYTLLTGRPELPPAWSFGLWLTTSFTTQYDERTVMEFVDGMRERDIPLHVFHFDCFWMKEFHWVDLEWNRENFPDPEGLLKRLKEKGLKVCVWINPYVSQFSSLFDEGKEKGYFLKKPDGDVWQTDDWQPGMAIIDFTNPEVRKWFASKLERLIDMGVDCFKTDFGEKIPTDVVYYDGSDPEKMHNYYTYLYNKVVFETIERKLGKRNAVVFARSATAGSQKFPVHWGGDCLASYESMAETLRGGLSLALCGFGFWSHDIGGFEDITTPDLYKRWVAFGLLSSHSRLHGNSMYKVPWNFDEEAVEVLRFFTKLKCKLMPYIFASAVEVHERGIPVMRPMILEFPDDPTCLYLDRQYMLGESLLVAPIFSETGEVTYYLPEGVWTHFLTGERVEGGRWRTEKYDYFGLPLFTRPNSIIPTGSVDDRPDYDYADGVTLNVFEISNKTAHVYNTRGEVELSVKVERKGNEIHVEVLKDSRKPWKLLFWNERLEAVEGAETRELEKGTEVVLSFQRAILKTK	not soluble
MSSYFPVYLDLKDKEVLVIGGGRVATRKVKTLLEFTKNITIVSPKVTEELKNLIKEKKIKWIDRKFKPSDLKDKFLVVVAVDDIKLQKRVFNLCEKRGILCNSVDSPKYCNFIFPSIIKRGDLVISISTSGKVPALSRALREKIEECLPENIEEIMKELEIIRKSEEKGEERQKKLLRLARELLKNFLEHHHHHH	soluble
MGSDKIHHHHHHMKISGHTSVVVAEKLLSEAKFSNLTQSAVVMISQRLCLGIILTGFITNQALAAEPKQSVVPISSVLATNYNKTQIHVTPVHSLVPKLSTKRANFKQETTTQDSVYLADWVLDSGDNQQMPFAIVDKKAAKVYVFDALGQLTGAAPALLGLAVGDDSIPNIGNMALASIKPEQRTTPAGRFVVALGKNIHNKEVLWIDYDAAISLHRVVTSSPKERRLQRLESQNLLERRISYGCINVPVNFYDQVVSPAFTGTNGVVYVLPDTRSIQEVFGSYSEPPRVYRRQIYLSQAAMPDRVKLS	not soluble
GSHMASDRKTEFILCVETFNEKAKKGIQMLIEKGFIDSDSNRDIASFLFLNNGRLNKKTIGLLLCDPKKTSLLKEFIDLFDFKGLRVDEAIRILLTKFRLPGESQQIERIVEAFSSKYSADQSNDKVELEDKKAGKNGSESMTEDDIIHVQPDADSVFVLSYSIIMLNTDSHNPQVKDHMTFDDYSNNLRGCYNGKDFPRWYLHKIYTSIKVKEIVMPEEH	soluble
MGSDKIHHHHHHENLYFQGMQLLKELCSIHAPSGNEEPLKDFILEYIRSNAGSWSYQPVIYADNDLQDCIVLVFGNPRTAVFAHMDSIGFTVSYNNHLHPIGSPSAKEGYRLVGKDSNGDIEGVLKIVDEEWMLETDRLIDRGTEVTFKPDFREEGDFILTPYLDDRLGVWTALELAKTLEHGIIAFTCWEEHGGGSVAYLARWIYETFHVKQSLICDITWVTEGVEAGKGVAISMRDRMIPRKKYVNRIIELARQTDIPFQLEVEGAGASDGRELQLSPYPWDWCFIGAPEKDAHTPNECVHKKDIESMVGLYKYLMEKL	soluble
MPIATVCTWPAETEGGSTVVAADHASNYARKLGIQRDQLIQEWGWDEDTDDDIRAAIEEACGGELLDEDTDEVIDVVLLWWRDGDGDLVDTLMDAIGPLAEDGVIWVVTPKTGQPGHVLPAEIAEAAPTAGLMPTSSVNLGNWSASRLVQPKSRAGKR	soluble
MSLETELPQAQDGSVRLLQITDTHLFASAEGRLLAVRTAESLAAVLERVQANDHPFDLILATGDLSQDHSPESYQRFASMMAPLARPIYWLPGNHDDGPLMTEYLHAAGISEAKQLVGEHWQVILLDTQVRGKPHGVLGDHQLAALDQALRQHPERHALIALHHQAVPVGCAWLDQHNLKPTTLFAVLARHPQQKTILFGHVHQEFDETAGMRLIASPSTCIQFKPLSDGLRAGREGHHHHHH	not soluble
MPRLALRQYNFYYRVNGEKAEELLKEYGEDGDFLLRYSESNPQNFSISVRVAEDKILHIKVTKYESDMLSIFEDERTTPNQFGSITELAEFYMEFPEKLREKNGLFLELKKPVYVPYHLEACAEEQRRTQLYRWWHGNLPASSANKLLQTEKNGTYLLRASQHIPGALVISAKTEGQVVHLTIYQDPSTGRFNIDGDRTKFQSAWLLIDSYSKNPIVEKGEASRVLYLEEPLFNTFIEADLFVDRFEIIRRPINPRESMEKTGISEEFDRLSQEALPAEQYLSKREGRRPVNAEKNRYKNIVPFDHTRVILTDRPNTPGSDYINASYVRFENSQRTKNVTFACEKSFIATQGCLETTISDFWSMVWQENSRVIVMPTMENERKEKCARYWPAEVNKPEVHGDISLTCTIERKVQRAVSDEVKAELEQEKTNRIAKGLVPEAELNGDGISYILRTLVMKKGKDTREIRQLQYLTWPDHGCPLHPYAVLNFLEDVDREYDYFNAQPIAASLPQGPIVVHCSAGIGRTGTVLVLDALLNQVKKVGLLCPMDVYKMVKYVRTYRSGLVQTEQQYQFLYKALAFYLKNNNPYPVKSFIDGDTDAFDFPRRLRPTPNASRPSSARQVTSSRPSSSASSRTSHSRPRTGPQAEPIFERSTSSTSSSSTLLKSTKK	not soluble
MGSDKIHHHHHHMNGGKPGVERDRREALLALAAALRPELHRYCARLMGSVIDGEDVVQDTFARAFVALDELCAVPQLRPWLFRIAHNRALDLLRSRATRVAEPIEAALEIVDDSKADAVETLMRKEAIETAVSRFAELPVVQRSVIILKDVLDEPLAEIAALLGISVDAVKAHLSRGRARLREINARTDPFPDARIASANVVRYINLFNQRDWDGLRALLAEDVRLQQSMHPPRSGAADVGMFFTIYAKSEGLWLKPAWVEGREVIAVFEHRAAPKPTHFMWLEWREGRISFIRDYRYVGYVADDARLVLASDVRSSGHGTKL	not soluble
MDRFENMNAFVRVVETGSISAAADRMDIAKSVVSRRLKELEEHLGVELFHRTTRQMNLTDSGRAFYQQSVRILADVLEAEHATSQFHGRLKGHLKVAVPLSFGLMHLGAAISTFLQTHPDIEFDLDFNDRQVDLLAEGFDLAIRIANLPDSSLIARRLAPIQAVMCASPAYLERMGTPQAPEELIRHRCLVYNLVSHSDNWNVYGTTGELIKTRIIPYLKASNGEFLRDAAVDGLGIVLLPTFIVYREIQRGALIPILTGYHYAQLAAYAIYPQTRHLSQRVRAFVDFLSQRFEGMPYWDACLNQ	not soluble
GHMSRRYWQLDVFAERPLTGNGLAVFDDASALDDAAMQAWTRELRQFESIFLLPGDDPRAFRARIFTLEEELPFAGHPLLGAAALLHHLRGGDNEQHWTLHLASKSVALRSVRAGSGFYAEMDQGRAEFGATPDAGTCRWFAEAFSLSANDLSGHPPRVVSTGLPYLLLPVTAEALGRARQVNDLQEALDKLGAAFVYLLDVDGREGRTWDNLGLVEDVATGSAAGPVAAYLVEYGLAARGEPFVLHQGRFLERPSRLDVQVATDGSVRVGGHVQLLARAELLTSAGS	soluble
GPGSMNRDPDNGLWYATLRGRTLLGEEVQLPESGIVGMTTVTTSKPSCSPFPTPASLSTFPPQIAEVGELEMVDEVFIEACAPRYVVWDHGRAPSPAASLLQWMMLAEVLHGPSKWAQGEGDTSL	not soluble
MENNNSPTNAAEHNQKIDPRNYDDVLSVAASIREQVGEDVARADLGIICGSGLGPIGDTVQDATILPYSKIPGFPTTHVVGHKGNMIFGKLGGKKVVCLQGRFHPYEHNMDLALCTLPVRVMHQLGIKIMIVSNAAGGINAVLRHGDLMLIKDHIFLPALAGFSPLVGCNDPRFGARFVSVHDAYDKQLRQLAIDVGRRSDMTLYEGVYVMSGGPQYESPAEVSLFKTVGADALGMSTCHEVTVARQCGIKVLGFSLITNIANLDADASVEVSHEEVMDIAQQAGERASRFVSDIITEITL	not soluble
MSLSGKDLGRAIEQAINKKIASGSVKSKAEVARHFKVQPPSIYDWIKKGSISKDKLPELWRFFSDVVGPEHWGLNEYPIPTPTNSDTKSELLDINNLYQAASDEIRAIVAFLLSGNATEPDWVDHDVRAYIAAMEMKVGKYLKALESERKSQNITKTGTEGHHHHHH	soluble
SKDELGEVIHAFNRMMTKLRKREKQRQHSLATLEQKRAFSEEVIESIQYALVITDNLGTIIHSNAATQHIFQKTPEALENANIRDLIKTKMPNELSQILSRCLECDDIHLQNIDNEQQLSLTTRRLSNHGYLLFAIQD	not soluble
